Test results taken from the supplement of paper PMC10567573.

B1: LOXL2 (parent)
chain: RLLRFSSQIHNNGQSDFRPKNGRH
B2: EPB41L3 (parent)
chain: KKFLTLGSKFRYSGRTQAQTRRAS

Variants of: B1
Experiment: protein stability index of a GFP-peptide fusion (GPS, HEK-293T) (PSI 1-6); higher = more stable
Conditions: c terminus: a fixed tail appended
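Also: lentivirally expressed fusions sorted by FACS into six bins by GFP to DsRed ratio, PSI derived from sequencing read proportions per bin multiplied by bin number.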

| Variant | protein stability index |
| --- | --- |
| RLLRFSSQIHNNGQSDFRPKNGGH [R23G] | 2.71 |
| RLLRFSSQIHNNGQSDFRPKNGIH [R23I] | 1.82 |
| RLLRFSSQIHNNGQSDFRPKNGAH [R23A] | 2.36 |
| RLLRFSSQIHNNGQSDFRPKNGDH [R23D] | 2.99 |
| RLLRFSSQIHNNGQSDFRPKNGMH [R23M] | 1.84 |
| RLLRFSSQIHNNGQSDFRPKNGFH [R23F] | 1.84 |
| RLLRFSSQIHNNGQSDFRPKNGHH [R23H] | 2.36 |
| RLLRFSSQIHNNGQSDFRPKNGYH [R23Y] | 2.61 |
| RLLRFSSQIHNNGQSDFRPKNGCH [R23C] | 1.97 |
| RLLRFSSQIHNNGQSDFRPKNGWH [R23W] | 1.91 |
| RLLRFSSQIHNNGQSDFRPKNGKH [R23K] | 2.8 |
| RLLRFSSQIHNNGQSDFRPKNGTH [R23T] | 3.29 |
| RLLRFSSQIHNNGQSDFRPKNGLH [R23L] | 2.04 |
| RLLRFSSQIHNNGQSDFRPKNGSH [R23S] | 3.14 |
| RLLRFSSQIHNNGQSDFRPKNGPH [R23P] | 2.46 |
| RLLRFSSQIHNNGQSDFRPKNGEH [R23E] | 3.2 |
| RLLRFSSQIHNNGQSDFRPKNGQH [R23Q] | 2.4 |
| RLLRFSSQIHNNGQSDFRPKNGNH [R23N] | 3.03 |
| RLLRFSSQIHNNGQSDFRPKNGVH [R23V] | 2.41 |

| Variant | protein stability index |
| --- | --- |
| RLLRFSSQIHNNGQSDFRPKNTRH [G22T] | 2.39 |
| RLLRFSSQIHNNGQSDFRPKNERH [G22E] | 2.4 |
| RLLRFSSQIHNNGQSDFRPKNHRH [G22H] | 2.4 |
| RLLRFSSQIHNNGQSDFRPKNYRH [G22Y] | 2.71 |
| RLLRFSSQIHNNGQSDFRPKNIRH [G22I] | 2.19 |
| RLLRFSSQIHNNGQSDFRPKNMRH [G22M] | 2.27 |
| RLLRFSSQIHNNGQSDFRPKNKRH [G22K] | 2.62 |
| RLLRFSSQIHNNGQSDFRPKNQRH [G22Q] | 2.89 |
| RLLRFSSQIHNNGQSDFRPKNRRH [G22R] | 2.47 |
| RLLRFSSQIHNNGQSDFRPKNVRH [G22V] | 2.01 |
| RLLRFSSQIHNNGQSDFRPKNWRH [G22W] | 2.22 |
| RLLRFSSQIHNNGQSDFRPKNSRH [G22S] | 3.02 |
| RLLRFSSQIHNNGQSDFRPKNNRH [G22N] | 2.58 |
| RLLRFSSQIHNNGQSDFRPKNPRH [G22P] | 2.7 |
| RLLRFSSQIHNNGQSDFRPKNFRH [G22F] | 2.11 |
| RLLRFSSQIHNNGQSDFRPKNLRH [G22L] | 2.49 |
| RLLRFSSQIHNNGQSDFRPKNCRH [G22C] | 2.4 |
| RLLRFSSQIHNNGQSDFRPKNDRH [G22D] | 2.94 |
| RLLRFSSQIHNNGQSDFRPKNGRE [H24E] | 3.12 |

| Variant | protein stability index |
| --- | --- |
| RLLRFSSQIHNNGQSDFRPKNGRN [H24N] | 2.89 |
| RLLRFSSQIHNNGQSDFRPKNGRG [H24G] | 3.2 |
| RLLRFSSQIHNNGQSDFRPKNGRF [H24F] | 2.38 |
| RLLRFSSQIHNNGQSDFRPKNGRI [H24I] | 2.54 |
| RLLRFSSQIHNNGQSDFRPKNGRD [H24D] | 2.86 |
| RLLRFSSQIHNNGQSDFRPKNGRY [H24Y] | 2.67 |
| RLLRFSSQIHNNGQSDFRPKNGRA [H24A] | 2.88 |
| RLLRFSSQIHNNGQSDFRPKNGRV [H24V] | 2.52 |
| RLLRFSSQIHNNGQSDFRPKNGRS [H24S] | 3 |
| RLLRFSSQIHNNGQSDFRPKNGRQ [H24Q] | 3.16 |
| RLLRFSSQIHNNGQSDFRPKNGRW [H24W] | 2.83 |
| RLLRFSSQIHNNGQSDFRPKNGRR [H24R] | 2.74 |
| RLLRFSSQIHNNGQSDFRPKNGRL [H24L] | 2.47 |
| RLLRFSSQIHNNGQSDFRPKNGRM [H24M] | 2.68 |
| RLLRFSSQIHNNGQSDFRPKNGRT [H24T] | 2.76 |
| RLLRFSSQIHNNGQSDFRPKNGRK [H24K] | 3.5 |
| RLLRFSSQIHNNGQSDFRPKNGRP [H24P] | 2.95 |
| RLLRFSSQIHNNGQSDFRPKNGRC [H24C] | 2.14 |

Variants of: B2
Experiment: as above
Conditions: c terminus: a fixed tail appended

| Variant | protein stability index |
| --- | --- |
| KKFLTVGSKFRYSGRTQAQTRRAS [L6V] | 3.61 |
| KKFLTQGSKFRYSGRTQAQTRRAS [L6Q] | 3.97 |
| KKFLTIGSKFRYSGRTQAQTRRAS [L6I] | 2.75 |
| KKFLTMGSKFRYSGRTQAQTRRAS [L6M] | 2.64 |
| KKFLTAGSKFRYSGRTQAQTRRAS [L6A] | 4.31 |
| KKFLTNGSKFRYSGRTQAQTRRAS [L6N] | 3.44 |
| KKFLTTGSKFRYSGRTQAQTRRAS [L6T] | 3.88 |
| KKFLTDGSKFRYSGRTQAQTRRAS [L6D] | 4.05 |
| KKFLTYGSKFRYSGRTQAQTRRAS [L6Y] | 2.48 |
| KKFLTHGSKFRYSGRTQAQTRRAS [L6H] | 3.38 |
| KKFLTCGSKFRYSGRTQAQTRRAS [L6C] | 3.17 |
| KKFLTKGSKFRYSGRTQAQTRRAS [L6K] | 3.64 |
| KKFLTSGSKFRYSGRTQAQTRRAS [L6S] | 2.52 |
| KKFLTPGSKFRYSGRTQAQTRRAS [L6P] | 3.57 |
| KKFLTEGSKFRYSGRTQAQTRRAS [L6E] | 4.08 |
| KKFLHLGSKFRYSGRTQAQTRRAS [T5H] | 2.82 |
| KKFLPLGSKFRYSGRTQAQTRRAS [T5P] | 2.67 |
| KKFLRLGSKFRYSGRTQAQTRRAS [T5R] | 3.06 |
| KKFLYLGSKFRYSGRTQAQTRRAS [T5Y] | 1.88 |

| Variant | protein stability index |
| --- | --- |
| KKFLKLGSKFRYSGRTQAQTRRAS [T5K] | 3.39 |
| KKFLALGSKFRYSGRTQAQTRRAS [T5A] | 3.78 |
| KKFLQLGSKFRYSGRTQAQTRRAS [T5Q] | 3.38 |
| KKFLNLGSKFRYSGRTQAQTRRAS [T5N] | 3.47 |
| KKFLWLGSKFRYSGRTQAQTRRAS [T5W] | 1.56 |
| KKFLDLGSKFRYSGRTQAQTRRAS [T5D] | 1.62 |
| KKFLFLGSKFRYSGRTQAQTRRAS [T5F] | 1.84 |
| KKFLSLGSKFRYSGRTQAQTRRAS [T5S] | 3.05 |
| KKFLMLGSKFRYSGRTQAQTRRAS [T5M] | 2.74 |
| KKFLGLGSKFRYSGRTQAQTRRAS [T5G] | 3.25 |
| KKFLILGSKFRYSGRTQAQTRRAS [T5I] | 2.27 |
| KKFLELGSKFRYSGRTQAQTRRAS [T5E] | 2.96 |
| KKFLCLGSKFRYSGRTQAQTRRAS [T5C] | 2.21 |
| KKFLTLWSKFRYSGRTQAQTRRAS [G7W] | 1.52 |
| KKFLTLMSKFRYSGRTQAQTRRAS [G7M] | 2.09 |
| KKFLTLCSKFRYSGRTQAQTRRAS [G7C] | 2.38 |
| KKFLTLSSKFRYSGRTQAQTRRAS [G7S] | 3.04 |
| KKFLTLYSKFRYSGRTQAQTRRAS [G7Y] | 3.02 |
| KKFLTLISKFRYSGRTQAQTRRAS [G7I] | 1.35 |
